In patent publication US20250011363A1, “OPTIMIZED SHORTENED PEPTIDE THAT BINDS TO ACETYLCHOLINE RECEPTOR, AND USE THEREOF” (SKINMED CO., LTD., priority 2021, published 2025):

Target: acetylcholine receptor
Assay: SPR, AchR immobilised on CM5 chip, peptide 10 uM

| Binder | Binding affinity (RU) |
| --- | --- |
| RIKVKK [6mer-2-645] | 15 RU |
| KYDIKR [6mer-2-632] | 12 RU |
| REEFRR [6mer-2-641] | 12 RU |
| RKHERK [6mer-2-657] | 32 RU |
| KTENKK [6mer-2-642] | 16 RU |
| KFKKKR [6mer-2-640] | 21 RU |
| KFAGRR [6mer-2-663] | 24 RU |
| RAAPRR [6mer-2-646] | 32 RU |
| RHEPKR [6mer-2-621] | 32 RU |
| RKWHKR [6mer-2-670] | 33 RU |
| KKWERK [6mer-2-674] | 26 RU |
| KCAERR [6mer-2-665] | 18 RU |
| KPMDRR [6mer-2-666] | 25 RU |
| KIWFRR [6mer-2-655] | 31 RU |
| RFCWKK [6mer-2-629] | 32 RU |
| RYWVKK [6mer-2-658] | 23 RU |
| RHKDRK [6mer-2-660] | 16 RU |
| RYEHRK [6mer-2-634] | 33 RU |
| KNADRR [6mer-2-651] | 21 RU |
| KECVRR [6mer-2-635] | 11 RU |
| RDWIRR [6mer-2-671] | 27 RU |
| RYAFRR [6mer-2-630] | 27 RU |
| KIDDRK [6mer-2-672] | 20 RU |
| RFKARK [6mer-2-650] | 18 RU |
| KIEMKR [6mer-2-653] | 20 RU |
| RPPVRK [6mer-2-637] | 32 RU |
| RKSFKR [6mer-2-628] | 30 RU |

Further lines, results first:

| Binding affinity (RU) | Binder |
| --- | --- |
| 23 RU | KHTVKK [6mer-2-639] |
| 22 RU | KIPNKR [6mer-2-659] |
| 19 RU | KTEPKR [6mer-2-647] |
| 11 RU | KAHPKK [6mer-2-662] |
| 11 RU | KADPRR [6mer-2-656] |
| 13 RU | KHAHRR [6mer-2-623] |
| 11 RU | KCCWKK [6mer-2-664] |
| 31 RU | KFDVRK [6mer-2-649] |
| 33 RU | KKTARR [6mer-2-627] |
| 30 RU | RCWAKR [6mer-2-638] |
| 20 RU | RMPEKR [6mer-2-654] |
| 12 RU | KANPKK [6mer-2-643] |
| 12 RU | REPNRR [6mer-2-644] |
| 33 RU | KNSEKK [6mer-2-626] |
| 21 RU | KMAPKR [6mer-2-636] |
| 29 RU | RMKAKK [6mer-2-661] |
| 33 RU | RHTGRR [6mer-2-620] |
| 33 RU | RFPDKK [6mer-2-625] |
| 16 RU | RTTMRK [6mer-2-652] |
| 13 RU | RFCNKK [6mer-2-668] |
| 23 RU | RYPDRK [6mer-2-648] |
| 17 RU | KYAVKR [6mer-2-633] |
| 15 RU | KNMWRK [6mer-2-669] |
| 13 RU | RYTNKR [6mer-2-622] |
| 14 RU | RMKWRK [6mer-2-675] |
| 25 RU | KHDMRR [6mer-2-667] |
| 16 RU | KYCMKR [6mer-2-631] |
| 33 RU | KPPIRK [6mer-2-624] |
| 23 RU | RFCGRK [6mer-2-673] |
